Source: patent US20230348603A1 (VERSEAU THERAPEUTICS, published 2023)

How the values were obtained:
Human VSIG4-L-His [1] = target: T1, Human VSIG4-L-His (human, UniProt Q9Y279 20-283); experiment: SPR (FJB)
T1 construct: long isoform ECD with His tag; also called hVSIG4-L
T1 sequence: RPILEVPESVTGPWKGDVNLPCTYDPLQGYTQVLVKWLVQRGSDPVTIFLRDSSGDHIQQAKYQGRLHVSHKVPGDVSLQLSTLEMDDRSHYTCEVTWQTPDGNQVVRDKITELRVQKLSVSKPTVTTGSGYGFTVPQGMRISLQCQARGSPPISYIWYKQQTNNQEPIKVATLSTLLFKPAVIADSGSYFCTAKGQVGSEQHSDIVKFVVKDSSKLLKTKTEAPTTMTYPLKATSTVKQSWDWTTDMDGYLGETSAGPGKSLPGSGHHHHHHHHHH

[2] = target: T2, Cynomolgus Monkey VSIG4-L-His (cynomolgus monkey); experiment: SPR (FJB)
T2 construct: ECD with His tag; also called cyVSIG4-L; cyno VSIG4-L-His
T2 chain: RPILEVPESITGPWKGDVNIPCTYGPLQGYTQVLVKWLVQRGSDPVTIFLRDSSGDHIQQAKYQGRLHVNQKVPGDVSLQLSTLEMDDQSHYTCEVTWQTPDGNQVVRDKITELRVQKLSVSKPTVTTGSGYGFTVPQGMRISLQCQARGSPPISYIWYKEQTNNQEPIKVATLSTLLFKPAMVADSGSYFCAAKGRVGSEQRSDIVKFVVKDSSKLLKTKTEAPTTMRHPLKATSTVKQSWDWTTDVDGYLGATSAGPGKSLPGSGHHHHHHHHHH

Human VSIG4-L-Fc [3] = target: T3, Human VSIG4-L-Fc (human); experiment: ligand blocking of C3b, IgG
T3 construct: also called hVSIG4-L-Fc; hVSIG4-L

Human VSIG4-L-Fc [4] = target: T3, Human VSIG4-L-Fc; experiment: ligand blocking of iC3b, IgG
Human VSIG4-L-His [5] = target: T1, Human VSIG4-L-His; experiment: BLI (Octet), IgG on AHC sensor, antigen 100 nM
Human VSIG4-S-His = target: T4, Human VSIG4-S-His (human, UniProt Q9Y279 20-283); experiment: BLI (Octet), IgG on AHC sensor, antigen 100 nM
T4 construct: short isoform ECD with His tag; also called hVSIG4-S; VISG4-S-His
T4 sequence: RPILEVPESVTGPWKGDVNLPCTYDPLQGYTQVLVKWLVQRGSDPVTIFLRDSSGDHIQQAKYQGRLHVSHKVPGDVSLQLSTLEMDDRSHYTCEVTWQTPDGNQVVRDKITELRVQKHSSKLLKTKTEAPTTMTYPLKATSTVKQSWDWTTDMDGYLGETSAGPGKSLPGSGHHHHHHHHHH

[6] = target: T2, Cynomolgus Monkey VSIG4-L-His; experiment: BLI (Octet), IgG on AHC sensor, antigen 100 nM
[7] = target: T5, Human VSIG4-L-CHO (human VSIG4 long isoform on CHO-K1 cells) (human, UniProt Q9Y279 20-399); experiment: flow cytometry, CHO-K1 cells expressing hVSIG4-L
T5 construct: also called hVSIG4-L (flow cytometry)
T5 sequence: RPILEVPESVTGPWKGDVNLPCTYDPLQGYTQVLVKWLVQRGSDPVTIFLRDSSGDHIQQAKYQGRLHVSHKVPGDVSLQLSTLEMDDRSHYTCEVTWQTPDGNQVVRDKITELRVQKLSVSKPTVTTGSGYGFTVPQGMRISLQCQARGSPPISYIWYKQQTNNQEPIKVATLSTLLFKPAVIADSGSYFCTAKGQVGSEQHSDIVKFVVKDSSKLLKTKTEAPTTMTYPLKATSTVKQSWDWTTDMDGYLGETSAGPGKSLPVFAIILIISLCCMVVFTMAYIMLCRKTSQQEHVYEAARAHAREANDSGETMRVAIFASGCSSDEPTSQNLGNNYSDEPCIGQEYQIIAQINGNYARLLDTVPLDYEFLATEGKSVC

Human VSIG4-L-Fc [8] = target: T3, Human VSIG4-L-Fc; experiment: BLI binning on hVSIG4-L-Fc, competitor 12A08 first;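 note: normalized to binding of second antibody without first competitor antibody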
Human VSIG4-L-Fc [9] = target: T3, Human VSIG4-L-Fc; experiment: BLI binning on hVSIG4-L-Fc, competitor 12A12 first;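 note: normalized to binding of second antibody without first competitor antibody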
Human VSIG4-L-Fc [10] = target: T3, Human VSIG4-L-Fc; experiment: BLI binning on hVSIG4-L-Fc, competitor 13H11 first;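 note: normalized to binding of second antibody without first competitor antibody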
Human VSIG4-L-Fc [11] = target: T3, Human VSIG4-L-Fc; experiment: BLI binning on hVSIG4-L-Fc, competitor 14D12 first;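 note: normalized to binding of second antibody without first competitor antibody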
Human VSIG4-L-Fc [12] = target: T3, Human VSIG4-L-Fc; experiment: BLI binning on hVSIG4-L-Fc, competitor 15C03 first;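 note: normalized to binding of second antibody without first competitor antibody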
Human VSIG4-L-Fc [13] = target: T3, Human VSIG4-L-Fc; experiment: BLI binning on hVSIG4-L-Fc, competitor 15C04 first;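 note: normalized to binding of second antibody without first competitor antibody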
Human VSIG4-L-Fc [14] = target: T3, Human VSIG4-L-Fc; experiment: BLI binning on hVSIG4-L-Fc, competitor 16E03 first;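 note: normalized to binding of second antibody without first competitor antibody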
Human VSIG4-L-Fc [15] = target: T3, Human VSIG4-L-Fc; experiment: BLI binning on hVSIG4-L-Fc, competitor 16E10 first;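 note: normalized to binding of second antibody without first competitor antibody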
Human VSIG4-L-Fc [16] = target: T3, Human VSIG4-L-Fc; experiment: BLI cross-blocking on hVSIG4-L-Fc, competitor 14C05 first
Human VSIG4-L-Fc [17] = target: T3, Human VSIG4-L-Fc; experiment: BLI cross-blocking on hVSIG4-L-Fc, competitor 16G02 first
Human VSIG4-L-Fc [18] = target: T3, Human VSIG4-L-Fc; experiment: ligand competition ELISA (FJB), blocked ligand C3b
Human VSIG4-L-Fc [19] = target: T3, Human VSIG4-L-Fc; experiment: ligand competition ELISA (FJB), blocked ligand iC3b
[20] = target: T5, Human VSIG4-L-CHO (human VSIG4 long …); experiment: flow cytometry (FJB), 200 nM mAb, huVSIG4-L CHO-K1 cells
[21] = target: T5, Human VSIG4-L-CHO (human VSIG4 long …); experiment: flow cytometry (FJB), 200 nM mAb, huVSIG4-L CHO-K1 over parental CHO-K1

B1: 12A12 mouse/human chimeric IgG4 (S228P) kappa (antibody, V domains shown)
VH: QVQMKQSGAELAKPGASVKMSCKASGYTFTNYWMHWVKQRPGQGLEWIGYINPSTGYTDYNQNFKDRATLTADKSSSTAYMQLSSLTSEDSAVYYCIRGSDYYGRDYWGQGTTLTVSS
VL: DIQMTQTTSSLSASLGDRVTISCRASQDISNYLNWYQQKPDGTLKLLIYYTSRLHSGVPSRFSGSGSGTDYSLTISNLEQEDIATYFCRQGNTLPWTFGGGTKLEIKR
What does the source list for B1?
Kd (Human VSIG4-L-His [1]): 8.6 nM; Kd [2]: 6.8 nM; Percent Blocking C3b (Human VSIG4-L-Fc [3]): 96%; Percent Blocking iC3b (Human VSIG4-L-Fc [4]): 98%; Kd (Human VSIG4-L-His [5]): 19.1 nM; Kd (Human VSIG4-S-His): 15.8 nM; Kd [6]: 19.5 nM; EC50 [7]: 4.4 nM; normalized maximum binding nm shift (Human VSIG4-L-Fc [8]): 0.86 normalized; normalized maximum binding nm shift (Human VSIG4-L-Fc [9]): 0.13 normalized; normalized maximum binding nm shift (Human VSIG4-L-Fc [10]): 0.74 normalized; normalized maximum binding nm shift (Human VSIG4-L-Fc [11]): 0.7 normalized; normalized maximum binding nm shift (Human VSIG4-L-Fc [12]): 0.65 normalized; normalized maximum binding nm shift (Human VSIG4-L-Fc [13]): 0.76 normalized; normalized maximum binding nm shift (Human VSIG4-L-Fc [14]): 0.64 normalized; normalized maximum binding nm shift (Human VSIG4-L-Fc [15]): 0.62 normalized; binding signal (nm shift) (Human VSIG4-L-Fc [16]): 0.72 nm; binding signal (nm shift) (Human VSIG4-L-Fc [17]): 0.16 nm; IC50 (Human VSIG4-L-Fc [18]): 0.9 nM; IC50 (Human VSIG4-L-Fc [19]): 0.5 nM; Binding (200 nM) MFI [20]: 106000 MFI; Binding (200 nM) Fold-Over-Parental [21]: 291 fold
